Test results as given in PMC3273827.

Target: T1, La(4-325) (Homo sapiens, UniProt P05455 4-325)
T1 sequence: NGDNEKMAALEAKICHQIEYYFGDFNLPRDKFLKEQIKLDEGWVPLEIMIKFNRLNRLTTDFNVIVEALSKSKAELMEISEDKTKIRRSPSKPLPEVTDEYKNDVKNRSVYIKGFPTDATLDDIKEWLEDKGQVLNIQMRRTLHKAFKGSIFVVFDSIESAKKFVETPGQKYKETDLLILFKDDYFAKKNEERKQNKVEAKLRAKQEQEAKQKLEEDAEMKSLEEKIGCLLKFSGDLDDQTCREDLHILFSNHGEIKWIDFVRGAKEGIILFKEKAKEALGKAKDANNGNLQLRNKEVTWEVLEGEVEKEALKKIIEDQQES
Assay: ITC

Question: Does ACCUAACCACCACUACCACCUCCCACA (ssRNA) [27-mer ssRNA] bind?
Answer: Result: no binding
